Data: US9555076B2, “Neuregulin based methods and compositions for treating cardiovascular diseases” (Zensun (Shanghai) Science & Technology, Co., Ltd., priority 2002, dated 2017)
Values joined by “and” are separate entries in the source; they are usually repeats but may differ in a detail not shown here. Identical values can stand only once.

How the values were obtained:
[1] = system: toxic myocarditis caused by Adriamycin in rat; assay: Survival rate, Adriamycin caused toxic myocarditis rat model; format: in vivo, SD rat; settings: Adriamycin 3.3 mg/kg iv once every week × 4, 5 weeks later
Procedure: rhNRG-1β was injected into the tail vein within 24 hours after the first injection of Adriamycin, the injection of rhNRG-1 β was carried out once daily for 10 days. Dosage was adjusted according to the body weight, volume of the drug administered was 0.2 ml/100 g.
Based on the <<Guidance Principle of New Drug Preclinical Experiment>>, 3.3 mg/kg of Adriamycin was injected into the tail vein, once per week for consecutive 4 injections, establishing Adriamycin caused toxic myocarditis rat model.
(§1) rhNRG-1 β was injected into the tail vein within 24 hours after the first injection of Adriamycin. During the experiment, animal survival was dynamically monitored, heart function indexes (maximal rate of pressure increase within left ventricle, […], maximal rate of pressure decrease within left ventricle, −dp/dt, systolic end pressure of left ventricle LVPmax, diastolic end pressure of left ventricle LVPmin) were monitored at the 5th week. Section was made from the heart tissue and pathological changes examined.
Situation of survival was recorded weekly and the survival rate of the various experimental groups was calculated. Survival rate (%)=survival animal number/number of experimental animals×100.

[2] = system: toxic myocarditis caused by Adriamycin in rat; assay: Hemodynamics index, Adriamycin rat model; format: in vivo, SD rat; settings: 5 weeks later
Procedure: as §1
Hemodynamics index such as carotid artery pressure, intra-ventricular pressure. dp/dt was measured with six lead physiology recorder. Major procedure: separate the right carotid artery, ligate its distal end and block its proximal end with arterial clamps, 20 G arteriovenous indwelling needle was inserted into the carotid artery, took out the medal stylet, loosened the artery clamps, push the plastic trocar further into appropriate depth, indwelled for 10 minutes, observed the wave style recorded by the physiology recorder, after it was stable, then recorded the carotid artery pressure and push the trocar further into the left ventricle, kept in place for 15 minutes, after it was stable, then recorded the dp/dt, −dp/dt, LVPmax and LVPmin.

[3] = system: toxic myocarditis caused by Adriamycin in rat; assay: Myocardial pathologic scoring, Adriamycin rat model; format: in vivo, SD rat; settings: Adriamycin 3.3 mg/kg iv weekly × 4, 5 weeks later
Procedure: (§2) Heart was extirpated after thoracotomy (auricle should be reserved), the heart weight was measured after dried with absorbent paper, ratio of heart weight/body weight calculated; outer diameter of the heart was measured at ½ site of the vertically standing heart; medium part of the left ventricle was crosswise cut open, maximal thickness of free wall of the left ventricle measured; the heart was fixed with 10% formaldehyde, paraffin embedded and HE stained, observation of the myocardial structure carried out under optic microscope, give out pathologic score.
Scoring could be performed between grade 1 and grade 2 or between grade 2 and grade 3, e.g. grade 1.5, grade 2.5 etc. 6.3.3.3 Determination of Hemodynamics Index

[4] = system: toxic myocarditis caused by Adriamycin in rat; assay: Serum troponin T (cTnT) level, Adriamycin rat model; format: in vivo, SD rat; settings: Adriamycin 3.3 mg/kg iv once every week × 4, 5 weeks later
Procedure: 2 ml of arterial blood was withdrawn, serum extracted, frozen and stored at −20° C., determination of serum cTnT content was performed with electrochemistry irradiate method submitted to be carried out by Clinical Laboratory of Zhong Shan Hospital.

[5] = system: toxic myocarditis caused by Adriamycin in rat; assay: Heart size (heart weight/body weight, wall thickness), Adriamycin rat model; format: in vivo, SD rat; settings: Adriamycin 3.3 mg/kg iv once every week × 4, 5 weeks later
Procedure: as §2

[6] = system: Rhesus; assay: Rhesus long-term toxicity study, 3 weeks iv plus 3 weeks convalescence; settings: for heart rate in conscious animals (electrocardiography): every drug taken group
[7] = rat, Adriamycin 3.3 mg/kg iv once every week × 4
[8] = survived rat, Adriamycin 3.3 mg/kg iv weekly × 4

## COc1cccc2c1C(=O)c1c(O)c3c(c(O)c1C2=O)C[C@@](O)(C(=O)CO)C[C@@H]3O[C@H]1C[C@H](N)[C@H](O)[C@H](C)O1 [Adriamycin, reference compound]
[1]
  survival rate: 15%
[2]; [7]
  LVPmax: 106.1 ± 21.2 mmHg
  dp/dt: 2674 ± 446 mmHg/s
[2]; rat, Adriamycin 3.3 mg/kg iv once every week × 4, in mmHg
  LVPmin: −10.0 ± 4.7
[2]; rat, Adriamycin 3.3 mg/kg iv once every week × 4, in mmHg/s
  −dp/dt: −2141 ± 596
[2]; [8]
  LVPmax as % of the normal value: 58%
  LVPmin as % of the normal value: 37%
  dp/dt as % of the normal value: 43%
  −dp/dt as % of the normal value: 47%
[3]
  relative morbidity rate: 100%
[4]
  cTnT: 0.2 ng/mL and 0.205 ± 0.072 ng/mL
[5]
  Heart weight/body weight: 0.0031 ± 0.0001^
  heart circumference: 30.6 ± 0.1 mm
  thickness of left ventricular wall: 1.73 ± 0.16^ mm

B1: rhNRG-1 β: Recombinant human neuregulin fragment of 61 amino acid (SEQ ID NO:4), 3 disulfide bonds, expressed in E. coli (protein, listed as Homo sapiens)
chain: SHLVKCAEKEKTFCVNGGECFMVKDLSNPSRYLCKCPNEFTGDRCQNYVMASFYKAEELYQ
modifications: Human neuregulin beta-2 fragment
[6]; 7.5, 15, 75 μg/kg/d iv 3 weeks
  bone marrow smear: No significant toxic pathologic changes
  echocardiogram: no significant abnormality in echocardiogram
  fundus examination: No abnormal changes
  hematological, biochemistry examination, urine and fecal testing: no significant toxicological changes
  organ weight: No abnormal changes in organ weight
[6]; all animals, prior to and after the drug administration
  body temperature: no significant changes of body temperature
[6]; drug taken groups
  site of drug injection: mild paleness, hardening of regional skin and vessels
[6]; each drug taken group, 1 week after the beginning of drug administration
  general symptoms, gastrointestinal: Vomiting, nausea and salivation occurred in part of the animals
[6]; 3-week of drug administration
  heart rate in conscious animals (electrocardiography): significant reduction of heart rate
[6]; 10-day of drug administration
  heart rate in conscious animals (electrocardiography): no significant deceleration of heart rate
[6]; high dosage 75 μg/kg/d iv 3 weeks
  myocardium pathohistology: could cause vacuole in the cytoplasma of myocardium
[6]; high dosage group 75 μg/kg/d
  food ingestion: reduced significantly
[6]; high dosage group 75 μg/kg/d, self-comparison prior to and after drug
  body weight: lowered markedly
[6]; high dosage group, 3 weeks after drug withdrawal
  recovery of hydrocephalus: did not recover entirely
[6]; iv daily 3 weeks, 3-week's convalescent period
  dosage level that did not cause pericardial effusion and hydrocephalus: 7.5 µg/kg/day
